Assay results reported in article PMC12063177.

Assays:
[1] = molecular target: YaxAΔ40B_(weak-50aa) nanopore; experiment: single-channel nanopore electrical recording; single pore in a DPhPC planar bilayer; SA 20 nM or BT 50 nM added to cis; -75 mV; 150 mM NaCl, 15 mM TrisHCl pH 7.5
[2] = molecular target: YaxAΔ40B_(strepII-70aa) nanopore; experiment: single-channel nanopore electrical recording; apparent constants; SA titrated 1-25 nM in cis in 25% (v/v) mixed-protein solution (602 uM BSA, 35 uM HTf, 100 nM BT, 100 nM CRP before dilution); 80 nM biotin in trans; PDB11PEO8:DPhPC (1:1) hybrid bilayer; -75 mV sweeps protocol; 150 mM NaCl, 15 mM TrisHCl pH 7.5
[3] = molecular target: streptavidin (Streptomyces avidinii) (UniProt P22629); details: cited from earlier work
streptavidin (Streptomyces avidinii), sequence (P22629 25-183): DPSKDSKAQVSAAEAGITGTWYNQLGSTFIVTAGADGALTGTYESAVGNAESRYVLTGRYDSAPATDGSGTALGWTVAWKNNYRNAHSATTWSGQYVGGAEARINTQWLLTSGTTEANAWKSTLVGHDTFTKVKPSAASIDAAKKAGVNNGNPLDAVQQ

Streptavidin, sequence (P22629 25-183): as above

Row | Substance | dwell time [1] | Kd [2] | koff [2] | kon [2] | Kd [3]
1 | Streptavidin (from UniProt P22629 25-183) (natural protein) | 5580 ms | 0.023 µM | 0.2 s⁻¹ | 8.77e+06 M⁻¹ s⁻¹ | –
2 | strepII-peptide | – | – | – | – | 70 µM
